Publication PMC9109680

Tests used:
P37277 [1] = assay: anion-exchange chromatography; DDM-solubilised thylakoid membranes (2 mg chl) on DEAE, MgSO4 gradient, 0.04% DDM; A700 peak areas of the PSI trimer and PSI monomer fractions; cells grown under standard conditions (GL); WT and ORR1 strains; conditions: other: anion-exchange chromatography
P37277 [2] = assay: anion-exchange chromatography; DDM-solubilised thylakoid membranes (2 mg chl) on DEAE, MgSO4 gradient, 0.04% DDM; A700 peak areas of the PSI trimer and PSI monomer fractions; cells grown under increased photon flux (FL); WT and ORR1 strains; conditions: other: anion-exchange chromatography
[3] = target: photosystem I (PSI) reaction center (Synechocystis sp. PCC 6803 (endogenous in S. 6803 cells)) (UniProt P37277); assay: native gel or EMSA; BN-PAGE, 4-16% Bis/Tris gels, of PSI fractions isolated by anion-exchange chromatography (or sucrose gradients), 0.04% DDM; bands compared to literature; WT and ORR1 cells, GL or FL
[4] = target: photosystem I (PSI) reaction center (Synechocystis sp. PCC 6803 (endogenous in S. 6803 cells)) (UniProt P37277); assay: anion-exchange chromatography; DDM-solubilised thylakoid membranes (2 mg chl) on DEAE, MgSO4 gradient, 0.04% DDM; A700 peak areas of the PSI trimer and PSI monomer fractions; cells grown under standard conditions (GL); WT and ORR1 strains
[5] = target: photosystem I (PSI) reaction center (Synechocystis sp. PCC 6803 (endogenous in S. 6803 cells)) (UniProt P37277); assay: anion-exchange chromatography; DDM-solubilised thylakoid membranes (2 mg chl) on DEAE, MgSO4 gradient, 0.04% DDM; A700 peak areas of the PSI trimer and PSI monomer fractions; cells grown under increased photon flux (FL); WT and ORR1 strains

Chain of photosystem I (PSI) reaction center (P37277 whole entry, looked up): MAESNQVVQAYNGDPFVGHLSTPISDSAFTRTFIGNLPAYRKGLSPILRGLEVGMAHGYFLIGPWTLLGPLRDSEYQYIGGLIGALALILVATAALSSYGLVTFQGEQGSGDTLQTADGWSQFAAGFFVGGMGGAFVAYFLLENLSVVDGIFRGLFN

| stoichiometry N [3] | Monomer : trimer (A700 peak areas), ORR1 strain [4] | Monomer : trimer (A700 peak areas), WT strain [4] | Trimer : monomer (A700 peak areas), ORR1 strain [4] | Trimer : monomer (A700 peak areas), WT strain [4] | Monomer : trimer (A700 peak areas), ORR1 strain [5] | Monomer : trimer (A700 peak areas), WT strain [5] | Trimer : monomer (A700 peak areas), ORR1 strain [5] | Trimer : monomer (A700 peak areas), WT strain [5] | Substance | Monomer (% of total PSI), ORR1 strain (% of total PSI) (P37277 [1]) | Monomer (% of total PSI), WT strain (% of total PSI) (P37277 [1]) | Monomer (% of total PSI), ORR1 strain (% of total PSI) (P37277 [2]) | Monomer (% of total PSI), WT strain (% of total PSI) (P37277 [2]) |
| --- | --- | --- | --- | --- | --- | --- | --- | --- | --- | --- | --- | --- | --- |
|  |  |  |  |  |  |  |  |  | photosystem I (PSI) reaction center | 18 | 14 | 34 | 10 |
| 3 | 0.23 | 0.17 | 4.6 | 6.3 | 0.53 | 0.11 | 2 | 9.2 | photosystem I (PSI) reaction center (from UniProt P37277 1-157) (complex) |  |  |  |  |
